Measurements: IntAct's records for PubMed 12354775

B1: Protein naked cuticle (Drosophila melanogaster (Fruit fly)), Q9VVV9 (parent)
chain: MAGNIVKWWKHKILGGYKQFSVQECTTDSEELMYHQVRASSSCSAPPDLLLVSERDNNIQLRSPVVNIITTPPGNASGAGSKQQSHHQTNHHSSGRSHPGHTAHPQDVSSGGSHSKHLRISSTSNGKHGKYSNMQQQLPQDEDVVDAAATMQQQQHTGHAHSRHLHHHKEERIRLEEFTCDVSVEGGKSSQPLQFSFTFYDLDGHHGKITKDDIVGIVYTIYESIGKSVVVPHCGSKTINVRLTVSPEGKSKSQPVVPVPVAAGFSSSHASKLKKLPTGLAAMSKPLAGGGVGSGGASALTTSAGNRRQHRYRPRKLIKSDDEDDDSNSEKEKDAAHAPAADQPSGSGTKATGKSHHHQSQSARYHQKNNSRAEQCCTEQNTPDNGHNTYENMLNLKCCKPEVDQVDCPSHRQHHQSHPNHQMRQQDIYMKQATQRVKMLRRARKQKYQDHCLETRQRSLSVGNDSACPNRHLQLQQPPVGHPQPQSLNHKSASGSPPLGVGGGGDMMLDGVQLRQPRPHSLTPHQHQQQNQQQQQQQRKSAECWKSALNRNDLISIIRESMEKNRLCFQLNGKPQANVSPIRQPAAQQQPQQQQRQRCNTGSKIPTLITNHSPVAQQSPLSCSPPTAEPTTPSIPAAPPAIEVNGQQHHPTHPTHPSHHNHHEHPQPHIPIYHQQLAINPAVLAAQQTHNTAHNKLNLCGYDSFLHATICGGGAAAHSPPATPSNVATVQPIPKKSQKNLLQGYQRLEQSQQQQQQQRSSKDYKNYGNLIYAKLSEQLQQKDREQRRQRHKQQQHQMLQDQPKDASRSEQRPPTSNSSSAGSKIYGDAVECAHLLASEEEDLPPSPQLTSTPSKVVSTDTLIDLNDDVGEAVAEAVTEGGKQSLEAEESGQQVEVELDTSASSSMIHRYVHEHIHHHYHHFKEQQDV

Variants of: B1
Conditions: with dsh_drome dsh

Variant | effect of a mutation on the interaction
D201A | decreasing interaction
D213V | decreasing interaction
